# Positions count from the first letter of the chain named.
# T1: WT α1-α2 domain (soluble wild-type MICA, titrated) (UniProt Q29983 24-204)
# T1 construct: domain: α1-α2; also called WT MICA; WT NKG2DL
# T1 sequence (looked up): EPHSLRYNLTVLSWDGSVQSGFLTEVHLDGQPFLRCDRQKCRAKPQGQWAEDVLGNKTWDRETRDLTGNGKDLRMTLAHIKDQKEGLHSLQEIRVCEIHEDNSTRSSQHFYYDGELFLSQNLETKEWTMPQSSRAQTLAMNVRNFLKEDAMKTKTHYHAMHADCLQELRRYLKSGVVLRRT
# T2: His-avitag natural NKG2D ectodomain, biotinylated (human)
# T2 construct: also called natural form of the ectodomain of NKG2D
# T2 chain: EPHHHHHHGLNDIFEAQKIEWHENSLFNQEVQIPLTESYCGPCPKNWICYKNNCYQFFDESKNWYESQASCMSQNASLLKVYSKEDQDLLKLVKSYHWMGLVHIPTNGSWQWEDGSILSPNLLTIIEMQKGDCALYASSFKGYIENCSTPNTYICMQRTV
# B1: rituximab-MicAbody with ULBP2 variant AA (bispecific antibody, human IgG1, kappa)
# heavy: not shown
# light: QIVLSQSPAILSASPGEKVTMTCRASSSVSYIHWFQQKPGSSPKPWIYATSNLASGVPVRFSGSGSGTSYSLTISRVEAEDAATYYCQQWTSNPPTFGGGTKLEIKTVAAPSVFIFPPSDEQLKSGTASVVCLLNNFYPREAKVQWKVDNALQSGNSQESVTEQDSKDSTYSLSSTLTLSKADYEKHKVYACEVTHQGLSSPVTKSFNRGECAPTSSSGGGGSEPHSLSYDITVIPKFRPGPRWCAVQGQVDEKTFLHYDCGNKTVTPVSPLGKKLNVTTAWKAQNPVLREVVDILTEQLWDIQLENYTPKEPLTLQARMSCEQKAEGHSSGSWQFSFDGQIFLLFDSEKRMWTTVHPGARKMKEKWENDKVVATMFWSWSMGDCIGWLEDFLMGMDSTLEPS
# notes: also called ULBP2.AA
# B2: rituximab-MicAbody with ULBP2 variant AB (bispecific antibody, human IgG1, kappa)
# heavy: not shown
# light: B1 light with M376L, F377M, S379Q
# notes: also called ULBP2.AB
# B3: rituximab-MicAbody with ULBP2 variant C (bispecific antibody, human IgG1, kappa)
# heavy: not shown
# light: B1 light with M376I, F377L, S379Q, W380T
# notes: also called ULBP2.C
# B4: biotinylated human NKG2D (Example 1) (receptor, UniProt P26718 78-216, looked up)
# chain: FLNSLFNQEVQIPLTESYCGPCPKNWICYKNNCYQFFDESKNWYESQASCMSQNASLLKVYSKEDQDLLKLVKSYHWMGLVHIPTNGSWQWEDGSILSPNLLTIIEMQKGDCALYASSFKGYIENCSTPNTYICMQRTV
# notes: also called recombinant biotinylated NKG2D
# B5: DSM25 α1-α2-α3-Fv fusion (SEQ ID NO 43) (ligand)
# chain: EPHSLRYNLTVLSWDGSVQSGFLTEVHLDGQPFLRCDRQKCRAKPQGQWAEDVLGNKTWDRETRDLTGWGKDLRMTLAHIKDQKEGLHSLQEIRVCEIHEDNSTRSSQHFYYDGELFLSQNLETLEWTMPQSSRAQTLAMNVRNFLKEDAMETDTHYHAMRADCLSELRRYLKSGVVLRRTVPPMVQVTRSEASGGSGDRVTITCRASQDVSTAVAWYQQKPGKAPKLLIYSASFLYSGVPSRFSGSGSGTDFTLTISSLQPEDFATYYCQQSYTTPPTFGQGTKVEIKGGSSRSSSSGGGGSGGGGEVQLVESGGGLVQPGGSLRLSCAASGFTFTSTGISWVRQAPGKGLEWVGRIYPTNGSTNYADSVKGRFTISADTSKNTAYLQMNSLRAEDTAVYYCARTYGIYDLYVDYTEYVMDYWGQGTLVTVSSGGSSRSSSSGGGGSGGGGDIQMTQSPSSLSASGGSGQITVTCRASGFYPWNITLSWRQDGVSLSHDTQQWGDVLPDGQGTYQTWVATRISQGEEQRFTCYMEHSGQHSTHPVPSGKGSHHHHHH
# B6: trastuzumab-MIC25 MicAbody (bispecific antibody, human IgG1, kappa)
# heavy: not shown
# light: not shown
# chain: EPHSLRYNLTVLSWDGSVQSGFLTEVHLDGQPFLRCDRQKCRAKPQGQWAEDVLGNKTWDRETRDLTGWGKDLRMTLAHIKDQKEGLHSLQEIRVCEIHEDNSTRSSQHFYYDGELFLSQNLETLEWTMPQSSRAQTLAMNVRNFLKEDAMETDTHYHAMRADCLSELRRYLKSGVVLRRTV
# What was measured:
# [1] = target: T3, Fc-NKG2D.wt (human); assay: ELISA, Fc-NKG2D coated, MicAbody titrated; quantitative ELISA of Table 12, fitted EC50 on Fc-NKG2D.wt (20092-fold weaker than on AF)
# T3 construct: also called NKG2D.wt Y|Y; natural Fc-NKG2D
# [2] = target: T3, Fc-NKG2D.wt; assay: ELISA, Fc-NKG2D coated, MicAbody titrated; quantitative ELISA of Table 12, fitted EC50 on Fc-NKG2D.wt (10802-fold weaker than on AF)
# [3] = target: T3, Fc-NKG2D.wt; assay: ELISA, Fc-NKG2D coated, MicAbody titrated; quantitative ELISA of Table 12, fitted EC50 on Fc-NKG2D.wt (4414-fold weaker than on AF)
# [4] = target: T1, WT α1-α2 domain (soluble wild-type …); assay: BLI (Octet), Kd = kOFF/kON
# [5] = target: T1, WT α1-α2 domain (soluble wild-type …); assay: BLI (Octet), biotinylated human NKG2D coated, 100 nM analyte
# [6] = target: T2, His-avitag natural NKG2D ectodomain, …; assay: BLI (Octet), biotinylated natural NKG2D ectodomain coated, 100 nM fusion
# Procedure: In order to characterize and compare the kinetic binding parameters of the natural and 8 variant α1-α2 domains to natural NKG2D, we measured their binding to surface coated biotinylated natural NKG2D ectodomain using biolayer interferometry (Octet) at 100 nM of each of the α1-α2-α3-Fv fusion proteins.
# [7] = target: T3, Fc-NKG2D.wt; assay: ELISA (called Kd in the text)
# Procedure: (§1) The binding affinities of α1-α2 variants to the extracellular domains of natural (wild-type) NKG2D and non-natural eNKG2D proteins were analyzed using a plate-based ELISA method. Each of the SEC fractionated natural Fc-NKG2D and non-natural Fc-eNKG2D fusions were coated overnight at 4° C. onto separate wells of Nunc Maxisorp 96 well plates (Thermo Fisher Scientific, Waltham, Mass.) using a coating concentration of 1 μg/mL in phosphate-buffered saline (PBS). The plates were washed three times in PBS/0.05% Tween-20 (PBS-T) at 20-22° C., and blocked with 0.5% bovine serum albumin in PBS (PBS-B) for 2 hours at 20-22° C. MicAbodies were titrated against the plate-bound natural or non-natural Fc-NKG2D fusions for 60 minutes at 20-22° C. in PBS/0.5% bovine serum albumin (BSA)/0.05% Tween-20 (PBS-BT), washed 3 times with PBS-T at 20-22° C., and the bound bispecific proteins detected using an HRP-conjugated anti-human kappa in PBS-BT (Abcam, Cambridge Mass.) and developed with 1-Step™ Ultra TMB ELISA Substrate Solution (Thermo Fisher Scientific, Waltham, Mass.).
# [8] = target: T3, Fc-NKG2D.wt; assay: ELISA, Fc-NKG2D coated, MicAbody titrated from 300 nM
# Procedure: as §1
# [9] = target: T4, Fc-eNKG2D2 (Y152S) (human); assay: as above
# T4 construct: also called eNKG2D2 S|Y; not shown: human IgG1 Fc (without Fab domains)
# Procedure: as §1
# [10] = target: T5, Fc-eNKG2D3 (Y152T) (human); assay: as above
# T5 construct: also called eNKG2D3 T|Y
# Procedure: as §1
# [11] = target: T6, Fc-eNKG2D4 (Y152V) (human); assay: as above
# T6 construct: also called eNKG2D4 V|Y
# Procedure: as §1
# [12] = target: T7, Fc-eNKG2D14 (Y152L) (human); assay: as above
# T7 construct: also called eNKG2D14 L|Y
# Procedure: as §1
# [13] = target: T8, Fc-eNKG2D6 (Y152L/Y199F) (human); assay: as above
# T8 construct: also called eNKG2D6 L|F
# Procedure: as §1
# [14] = target: T9, Fc-eNKG2D15 (Y152F/Y199F) (human); assay: as above
# T9 construct: also called eNKG2D15 F|F
# Procedure: as §1
# [15] = target: T10, Fc-eNKG2D12 (Y152D/Y199D) (human); assay: ELISA, Fc-eNKG2D coated, MicAbody titrated from 300 nM
# T10 construct: also called eNKG2D12 D|D
# Procedure: as §1
# [16] = target: T11, Fc-eNKG2D13 (Y152E/Y199E) (human); assay: as above
# T11 construct: also called eNKG2D13 E|E
# Procedure: as §1
# [17] = target: T12, Fc-NKG2D.Y152A (human); assay: BLI (Octet), Fc-eNKG2D captured on AHC tips, 20 nM MicAbody
# T12 construct: also called eNKG2D A|Y; Fc-NKG2D.YA
# Procedure: (§2) Additional biophysical analysis of eNKG2D variant binding to ligands was also performed with Bio-Layer Interferometry (BLI) using the FortéBio Octet system (all FortéBio LLC, Fremont, Calif.). For these experiments human NKG2D ligands MICA-Fc, MICB-Fc, ULBP1-Fc, ULBP2-Fc, ULBP3-Fc, and ULBP4-Fc were purchased from R&D Systems, Inc. (Minneapolis, Minn.). Ligands in the MicAbody format were captured on anti-human IgG Fc capture (AHC) biosensor tips. After a baselines were established, tips were exposed to a titration series of Fc-eNKG2D fusion proteins ranging from 300 nM to 0.41 nM and association/dissociation kinetics monitored with all steps performed in PBS-BT. Subsequently, Fc-eNKG2D fusion proteins were captured onto AHC tips and MicAbodies were titrated to characterize binding kinetics.
# (§3) Binding analysis under the same conditions was then performed with Fc-eNKG2D fusion receptors as the capture agent, and the level of binding for each eNKG2D ranked as a percentage of the maximal binding response established by Fc-NKG2D.wt (Table 2).
# [18] = target: T4, Fc-eNKG2D2 (Y152S); assay: as above
# Procedure: as §2, §3
# [19] = target: T5, Fc-eNKG2D3 (Y152T); assay: as above
# Procedure: as §2, §3
# [20] = target: T6, Fc-eNKG2D4 (Y152V); assay: as above
# Procedure: as §2, §3
# [21] = target: T7, Fc-eNKG2D14 (Y152L); assay: as above
# Procedure: as §2, §3
# [22] = target: T13, Fc-eNKG2D1 (Y199F) (human); assay: as above
# T13 construct: also called eNKG2D1 Y|F; not shown: human IgG1 Fc (without Fab domains)
# Procedure: as §2, §3
# [23] = target: T14, Fc-eNKG2D5 (Y152A/Y199F) (human); assay: as above
# T14 construct: also called eNKG2D5 A|F; Fc-NKG2D.AF
# Procedure: as §2, §3
# [24] = target: T15, Fc-eNKG2D7 (Y152S/Y199F) (human); assay: as above
# T15 construct: also called eNKG2D7 S|F
# Procedure: as §2, §3
# [25] = target: T16, Fc-eNKG2D8 (Y152T/Y199F) (human); assay: as above
# T16 construct: also called eNKG2D8 T|F
# Procedure: as §2, §3
# [26] = target: T17, Fc-eNKG2D9 (Y152V/Y199F) (human); assay: as above
# T17 construct: also called eNKG2D9 V|F
# Procedure: as §2, §3
# T3 sequence (chain, as listed by the source limits assumed): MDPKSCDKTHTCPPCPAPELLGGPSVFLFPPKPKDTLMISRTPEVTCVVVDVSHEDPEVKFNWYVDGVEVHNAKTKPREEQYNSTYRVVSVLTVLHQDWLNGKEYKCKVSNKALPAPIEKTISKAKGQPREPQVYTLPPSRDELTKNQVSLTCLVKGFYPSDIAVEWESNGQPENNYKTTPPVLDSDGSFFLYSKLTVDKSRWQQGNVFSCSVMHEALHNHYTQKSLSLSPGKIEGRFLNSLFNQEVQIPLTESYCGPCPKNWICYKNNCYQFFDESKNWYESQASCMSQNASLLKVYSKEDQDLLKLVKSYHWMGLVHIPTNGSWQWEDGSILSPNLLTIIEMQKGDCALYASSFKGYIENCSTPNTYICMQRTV
# T5 sequence (chain, as listed by the source Y152T Y152T limits assumed): as the sequence (chain, as listed by the source limits assumed) above, with Y312T counted along it
# T7 sequence (chain, as listed by the source Y152L Y152L limits assumed): as the sequence (chain, as listed by the source limits assumed) above, with Y312L counted along it
# T4 sequence (chain, as listed by the source Y152S Y152S): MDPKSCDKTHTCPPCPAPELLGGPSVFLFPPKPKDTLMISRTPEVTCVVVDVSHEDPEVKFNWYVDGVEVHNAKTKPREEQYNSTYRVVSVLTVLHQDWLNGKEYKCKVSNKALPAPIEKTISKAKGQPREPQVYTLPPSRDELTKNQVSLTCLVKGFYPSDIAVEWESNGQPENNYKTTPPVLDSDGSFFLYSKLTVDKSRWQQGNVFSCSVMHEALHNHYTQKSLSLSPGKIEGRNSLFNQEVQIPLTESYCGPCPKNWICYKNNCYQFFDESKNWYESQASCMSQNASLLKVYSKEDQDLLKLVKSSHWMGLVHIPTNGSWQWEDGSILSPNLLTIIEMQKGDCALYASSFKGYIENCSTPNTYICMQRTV
# T6 sequence (chain, as listed by the source Y152V Y152V limits assumed): as the sequence (chain, as listed by the source limits assumed) above, with Y312V counted along it
# T15 sequence (chain, as listed by the source Y152S Y199F Y152S Y199F limits assumed): as the sequence (chain, as listed by the source limits assumed) above, with Y312S, Y359F counted along it
# T11 sequence (chain, as listed by the source Y152E Y199E Y152E Y199E limits assumed): as the sequence (chain, as listed by the source limits assumed) above, with Y312E, Y359E counted along it
# T16 sequence (chain, as listed by the source Y152T Y199F Y152T Y199F limits assumed): as the sequence (chain, as listed by the source limits assumed) above, with Y312T, Y359F counted along it
# T8 sequence (chain, as listed by the source Y152L Y199F Y152L Y199F limits assumed): as the sequence (chain, as listed by the source limits assumed) above, with Y312L, Y359F counted along it
# T17 sequence (chain, as listed by the source Y152V Y199F Y152V Y199F limits assumed): as the sequence (chain, as listed by the source limits assumed) above, with Y312V, Y359F counted along it
# T9 sequence (chain, as listed by the source Y152F Y199F Y152F Y199F limits assumed): as the sequence (chain, as listed by the source limits assumed) above, with Y312F, Y359F counted along it
# T14 sequence (chain, as listed by the source Y152A Y199F Y152A Y199F limits assumed): as the sequence (chain, as listed by the source limits assumed) above, with Y312A, Y359F counted along it
# T10 sequence (chain, as listed by the source Y152D Y199D Y152D Y199D limits assumed): as the sequence (chain, as listed by the source limits assumed) above, with Y312D, Y359D counted along it
# T12 sequence (chain, as listed by the source Y152A Y152A limits assumed): as the sequence (chain, as listed by the source limits assumed) above, with Y312A counted along it
# T13 sequence (chain, as listed by the source Y199F Y199F): as the sequence (chain, as listed by the source Y152S Y152S) above, with S310Y, Y357F counted along it
binder,measurement,setting,value
B1,EC50,[1],655 nM
B2,EC50,[2],389 nM
B3,EC50,[3],130 nM
B4,Kd,[4],13.8 nM
same,koff,[5],0.0018 s⁻¹
same,kon,[5],130000 M⁻¹ s⁻¹
B5,binding result,[6],binds
B6,EC50,[7],~0.005 nM
same,EC50,[8],~0.0039 nM
same,EC50,[9],0.0056 nM
same,EC50,[10],0.0056 nM
same,EC50,[11],~0.0043 nM
same,EC50,[12],0.01 nM
same,EC50,[13],0.37 nM
same,EC50,[14],0.046 nM
same,binding result,[15],no binding (tested: 300 nM)
same,binding result,[16],no binding (tested: 300 nM)
same,percent of the maximal binding response of Fc-NKG2D.wt,[17],100%
same,percent of the maximal binding response of Fc-NKG2D.wt,[18],100%
same,percent of the maximal binding response of Fc-NKG2D.wt,[19],100%
same,percent of the maximal binding response of Fc-NKG2D.wt,[20],100%
same,percent of the maximal binding response of Fc-NKG2D.wt,[21],100%
same,percent of the maximal binding response of Fc-NKG2D.wt,[22],100%
same,percent of the maximal binding response of Fc-NKG2D.wt,[23],50%
same,percent of the maximal binding response of Fc-NKG2D.wt,[24],50%
same,percent of the maximal binding response of Fc-NKG2D.wt,[25],50%
same,percent of the maximal binding response of Fc-NKG2D.wt,[26],100%
